Results from patent US20050058645A1 (ZENYTH OPERATIONS, published 2005).

Columns and labels:
[1] = molecular target: T1, mouse IL-13Rα1 (mouse, UniProt O09030 26-340, limits assumed); assay: Western blot
T1 sequence (looked up): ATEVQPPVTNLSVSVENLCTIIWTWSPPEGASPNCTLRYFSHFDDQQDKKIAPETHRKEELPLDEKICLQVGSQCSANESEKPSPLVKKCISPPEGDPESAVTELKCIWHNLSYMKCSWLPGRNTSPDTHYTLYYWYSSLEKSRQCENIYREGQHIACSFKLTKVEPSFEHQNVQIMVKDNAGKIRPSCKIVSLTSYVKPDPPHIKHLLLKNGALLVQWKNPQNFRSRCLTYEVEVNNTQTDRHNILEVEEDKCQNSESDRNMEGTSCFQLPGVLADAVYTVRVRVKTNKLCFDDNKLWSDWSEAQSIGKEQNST

[2] = molecular target: T2, FLAG-tagged IL-13Rα1-gp130 chimeric receptor (human); assay: Western blot of lysates of transfected COS cells after SDS-PAGE, probed with mAb 1D9
T2 construct: Extracellular domain of human IL-13Rα1 fused to transmembrane and cytoplasmic domains of gp130; On 293A12-derived cells (lines 3.1.2, 3.2.4) in the reporter assay; in COS cell lysates in the Western blot; also called IL-13Rα1-gp130 fusion; IL13Rα1/gp130 chimera
T2 chain: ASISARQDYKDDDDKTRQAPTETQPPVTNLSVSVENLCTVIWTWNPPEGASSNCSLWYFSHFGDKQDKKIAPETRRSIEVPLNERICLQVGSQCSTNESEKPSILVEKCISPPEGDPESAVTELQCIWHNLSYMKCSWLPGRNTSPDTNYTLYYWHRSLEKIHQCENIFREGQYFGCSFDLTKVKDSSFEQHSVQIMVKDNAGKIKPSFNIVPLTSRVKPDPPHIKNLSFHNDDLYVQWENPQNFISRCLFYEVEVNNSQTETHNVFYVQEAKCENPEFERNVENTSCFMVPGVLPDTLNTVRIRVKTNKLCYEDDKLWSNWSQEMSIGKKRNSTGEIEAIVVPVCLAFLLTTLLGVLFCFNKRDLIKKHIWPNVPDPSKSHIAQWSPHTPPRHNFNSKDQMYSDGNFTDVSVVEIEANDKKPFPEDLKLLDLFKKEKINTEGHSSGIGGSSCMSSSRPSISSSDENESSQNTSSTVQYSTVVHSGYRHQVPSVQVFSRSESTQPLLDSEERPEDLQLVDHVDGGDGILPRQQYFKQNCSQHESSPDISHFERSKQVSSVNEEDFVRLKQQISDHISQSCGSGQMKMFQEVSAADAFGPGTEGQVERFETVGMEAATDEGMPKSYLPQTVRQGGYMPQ
Source text: FIG. 3 is a photographic representation showing transient expression of chimeric receptor constructs in COS cells. COS cells were transfected with pEFBOS encoding FLAG-tagged IL-13Rα1-gp130, FLAG-tagged IL-4Rα-gp130 (two independent clones) or control β-gal. Cell lysates were recovered at 72 hrs and after SDS-PAGE and Western transfer, probed with either an anti-FLAG antibody or the IL-13Rα1-specific mAb 1D9.

[3] = molecular target: T3, chimeric mouse IL-13Rα1-Fc (mouse; human, UniProt O09030 26-340); assay: Biosensor blocking assay: mouse IL-13Rα1-Fc at 2 ug/ml pre-incubated 1 hour with titrated 1D9, then passed over immobilised IL-13
T3 construct: extracellular domain; Bought (R & D Systems); Preformed disulphide-bonded dimer; also called mIL-13Rα1-Fc; chimeric mouse receptor; not shown: Fc portion of human IgG
T3 sequence (looked up): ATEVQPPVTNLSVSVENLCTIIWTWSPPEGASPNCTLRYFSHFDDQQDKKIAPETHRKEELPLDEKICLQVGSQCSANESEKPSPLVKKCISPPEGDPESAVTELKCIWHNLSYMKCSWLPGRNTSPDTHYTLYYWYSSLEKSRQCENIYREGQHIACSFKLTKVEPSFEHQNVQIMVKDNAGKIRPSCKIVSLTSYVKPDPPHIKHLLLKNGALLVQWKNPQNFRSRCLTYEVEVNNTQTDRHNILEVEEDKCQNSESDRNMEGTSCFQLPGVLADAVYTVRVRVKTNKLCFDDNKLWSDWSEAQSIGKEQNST
Description: (§1) Initially mouse mAb 1D9 is tested for its ability to inhibit the interaction of the chimeric human and mouse IL-13Rα1-Fc with IL-13 using both an ELISA- and Biosensor-based approach. […] Identical results are obtained with the ELISA-based assay. 1D9 is a potent inhibitor of the chimeric human receptor, compared with a control mAb, but has no effect on the binding of the chimeric mouse receptor to mouse IL-13 (FIG. 6). The Biosensor study incorporated a 1D9 dose-response analysis and a further dose-response analysis was undertaken using the ELISA.

[4] = molecular target: T4, chimeric human IL-13Rα1-Fc (human, UniProt P78552 22-343); assay: Biosensor blocking assay: human IL-13Rα1-Fc at 2 ug/ml pre-incubated 1 hour with titrated 1D9, then passed over immobilised human IL-13 (the blocked ligand)
T4 construct: Bought (R & D Systems); Extracellular domain of IL-13Rα1 fused to Fc of human IgG; Expressed as preformed disulphide-bonded dimer; also called hIL-13Rα1-Fc; chimeric human receptor; not shown: Fc portion of human IgG
T4 sequence: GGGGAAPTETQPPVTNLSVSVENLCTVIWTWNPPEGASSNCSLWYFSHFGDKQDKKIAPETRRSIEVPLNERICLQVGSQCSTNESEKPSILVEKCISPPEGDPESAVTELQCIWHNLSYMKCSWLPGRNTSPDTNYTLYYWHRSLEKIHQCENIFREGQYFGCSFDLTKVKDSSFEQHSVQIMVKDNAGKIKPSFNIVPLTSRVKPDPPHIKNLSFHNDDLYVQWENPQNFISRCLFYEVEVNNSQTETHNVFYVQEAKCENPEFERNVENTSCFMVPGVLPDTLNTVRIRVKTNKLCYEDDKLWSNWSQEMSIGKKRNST
Description: as §1

[5] = molecular target: T4, chimeric human IL-13Rα1-Fc; assay: ELISA; 1D9 dose-response, inhibition of chimeric human IL-13Rα1-Fc binding to plate bound IL-13; ELISA dose-response; inhibition of chimeric human IL-13Rα1-Fc binding to IL-13
Description: as §1

- binding result [1]: no binding
- binding result [2]: binds
- binding result [3]: no binding (tested: about 50 µg/ml)
- IC50 (read off the curve) [4]: ~2 µg/mL
- IC50 [5]: ~20 nM
B1: murine monoclonal antibody 1D9 (antibody, IgG1, V domains shown)
VH: EVKLVESGGGLVKPGGSLKLSCAASGFTFSGYGMSWVRQTPEKRLEWVATISGLGGYTYYPDSVKGRFTISRDNAKNTLYLQMSSLRSDDTAFYYCARRFYGDYVGAMDYWGQGTSVTVSS
VL: DILMTQAAFSNPVTLGTSASISCRSSKSLLHSNGITYLYWYLQKPGQSPQLLIYQMSNLASGVPDRFSCSGSGTDFTLSISRVEAEDVGFYYCAQNLELPFTFGSGTKLEIE
notes: Murine hybridoma antibody (ECACC 03032101); also called mAb 1D9; mouse mAb 1D9
